Consider 2 substances from patent EP2058006A1.

Some results are limits rather than exact numbers.

Experiment [1] concerns the target CC-chemokine receptor CCR5 on the cell surface (UniProt P51681). Kind of experiment: cell-based or functional assay.
The target is the same in experiment [2]. Put plainly: flow cytometry on L1.2-CCR5+ cells, saturating mAb, PE anti-mouse IgG.
Experiment [3] shares this target. Put plainly: flow cytometry on PHA/IL-2-stimulated PBMC, mean fluorescence intensity. A general note: A flow cytometer gives signals particle by particle.
Experiment [4] has the same target.
The target is the same in experiment [5]. Put plainly: flow cytometry on PHA/IL-2-stimulated PBMC.

Sequence of UniProt P51681 (P51681 whole entry): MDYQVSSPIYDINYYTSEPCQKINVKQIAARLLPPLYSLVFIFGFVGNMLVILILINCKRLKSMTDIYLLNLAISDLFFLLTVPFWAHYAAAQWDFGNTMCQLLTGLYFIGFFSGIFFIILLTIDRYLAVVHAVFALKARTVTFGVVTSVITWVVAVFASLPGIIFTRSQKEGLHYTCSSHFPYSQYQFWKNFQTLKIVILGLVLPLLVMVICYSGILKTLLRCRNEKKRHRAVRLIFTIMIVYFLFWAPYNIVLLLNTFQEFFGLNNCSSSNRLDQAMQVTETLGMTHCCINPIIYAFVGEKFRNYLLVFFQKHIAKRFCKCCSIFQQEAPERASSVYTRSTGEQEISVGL

As usually defined, the IC50 is the concentration that gives 50% inhibition. Take “anti-CCR5 monoclonal antibody PA14 (ATCC Accession No. HB-12610)”: in experiment [1], the IC50, inhibition of JR-FL entry (luciferase reporter virus, U87MG-CD4+CCR5+ cells) came out at 0.024 µg/mL; the IC50, inhibition of cell-cell fusion (RET assay, PM1 and HeLa-EnvJR-FL+ cells) came to 1.7 µg/mL; the IC50 for inhibition of RANTES-induced calcium influx in L1.2-CCR5+ cells came out at 50 µg/mL; the ratio of the PA14 IC50 to the 2D7 IC50, RANTES-induced calcium influx worked out at 8 fold. In addition, in experiment [2], the % of L1.2-CCR5+ cells stained was more than 90%. The substance further registered a fold difference in m.f.i. against PA9 in experiment [3] of 7 fold. The concentration for half-maximal inhibition (IC50) in experiment [4] was found to be 1.58 µg/mL. In addition, in experiment [5], the % of PBMC stained is more than 20%.
Turning to “anti-CCR5 mAb 2D7 (Pharmingen) (antibody)”, in experiment [1], the IC50, inhibition of JR-FL entry (luciferase reporter virus, U87MG-CD4+CCR5+ cells) is 0.026 µg/mL; the IC50, inhibition of cell-cell fusion (RET assay, PM1 and HeLa-EnvJR-FL+ cells) was 1.6 µg/mL; the K (equal to the IC50), inhibition of cell-cell fusion, median effect fit (RET assay) was determined as 0.36 µg/mL. The % of L1.2-CCR5+ cells stained in experiment [2] was more than 90%. Besides, the 50% inhibitory concentration (IC50) in experiment [4] came out at 1.38 µg/mL. This substance also showed a % of PBMC stained in experiment [5] of more than 20%.
